This data set is described as follows: soluble on expression in E. coli; label from the status in PepcDB or PDB records.
In the case of “MGSDKIHHHHHHMRILFVTEYYPPIHMGGAEISLKILVNKLAKLGHEVTVITPNYTKYKTETEISKNLRVIRFKSWRYFLFKKQLRKISSEIYLRKKSSYYFQLNGYIKLSSFEIMKVVKELLQKEDFDVIHANNLESILGLSKLQVNTKVAHLRDFALLCWNRGLNNNGKLCEGCSLTNIRQCMGANYILGSALVHEINKRKNVLGKFDKILAISNFVKMEFVKRLNIPTEKISVLYNPITQEIVSNISKEEARQYLNLPEDKTIVLFVGTLTELKGAHLIPKIAKELPEHLFVVVGDGPLRKMFTEFPLENVLYVGYQPMEILRHYYKASDILLVPSLWHEPFGRVIIEGAANGCYVVGSDKGAIPEIIHWIGYGTSVPPQSKYFVEAIKNAPQTTKHEKLKIKIINYSHKYAEKFIKAIME”, the “soluble on expression in E. coli” value is “not soluble”.

Take “MGSDKIHHHHHHMRKAERLNDMMLFLNDKNSFQLSDIMAKYGVSRSTAIRDIQSLEEIGMPIYSERGRNGHYRVLRNRLLSPIVFNIDEVFALYFSMLTLKAYETTPFHLSVEKLKTKFERCLSAEKIEMLRKIEEVFSLGYIKHNNQCEFLDVILQFTMEEKVCQINYDNNGTEKTYIVQFYNISSAYGQWYVTSYNFETKRMQVFRCDKILALKENDTFEAKKMEELKGVADSFNKKADVTTFEVEIASNGVDLFFKENYPSMKLRQQEGRNCIHGFYHKGEERFIINYLLGYGEKIIAIQPDSLRDMLLNELDTIKKHMQNLSS”: the “soluble on expression in E. coli” value is recorded as “not soluble”.

Consider “MGSDKIHHHHHHMRKMMNEQLPISKSSPLKARFYDYPYFTYPWHFHTEYEIIYVKEGTGMRFVGNNAEKYADGDILLLGSDLPHYMKSDEVYRQEGSTLRTTGTIIQFEKDFMHHAFNYYPHFMKIKNLLEEAQRGIYFPAGCSPRLVDLLESIPVETGVDQITSFLQLLKEMANVASRSVLSTSDFENDIIYDGSRIDKIIVYLNKNYTRQIDLNEISSLAAMNPAAFCRFFKSKTGKSFKNYILEMRIGYACKLLLMGDMNISQISVECGFDTISHFNKSFKKHTGFTPSYYKRMMLAE”, for which the “soluble on expression in E. coli” value is “not soluble”.

“MGSDKIHHHHHHMRKWISYPHREGTISRQAHADFPAEAIYEREVGRSGFFGPATHLHHKHPPTAWSAWEGPLRPRAYDLNELPHGTPAPWDAPLVLHNAQCKLRIWRCDQAMTQLSRNADGDDLLFIHGGSGELFCDYGHLSYRDGDYILVPRSTSWRIEPASPTTMLLIETSNGAYQLPEKGLVGPHAIFDEAVLDVPAIDDAFKAQQTEDEWQVVIKRRGALSTVTYPYNPLDAIGWHGNLSVARVNWRDIRPLMSHRYHLPPSAHTTFVADGFVICTFVPRPIESDPGALKVPFYHNNDDYDEVIFYHAGDFFSRDNIKPGMLTFHPAGFTHGPHPKAFAKAMTDPKTFTDEVAVMIDARDALEQGPGLAGVEWQGYVDSWKPKQA”: the “soluble on expression in E. coli” value is “not soluble”.

Regarding “MGSDKIHHHHHHMRLPDAGFRRYIVVAGRRNVGKSSFMNALVGQNVSIVSEYAGTTTDPVYKSMELYPVGPVTLVDTPGLDDVGELGRLRVEKARRVFYRADCGILVTDSEPTPYEDDVVNLFKEMEIPFVVVVNKIDVLGEKAEELKGLYESRYEAKVLLVSALQKKGFDDIGKTISEILPGDEEIPYLGDLIDGGDLVILVVPIDLGAPKGRLIMPQVHAIREALDREAIALVVKERELRYVMENIGMKPKLVITDSQVVMKVASDVPEDVELTTFSIVESRYRGDLAYFVESVRKIEELEDGDTVVIMEGCTHRPLTEDIGRVKIPRWLVNHTGAQLNFKVIAGKDFPDLEEIEGAKLIIHCGGCVLNRAAMMRRVRMAKRLGIPMTNYGVTISYLHGVLDRAIRPFREEVKV”, the “soluble on expression in E. coli” value is listed as “not soluble”.

Consider “MGSDKIHHHHHHMRPAPSIVEVVAAIIIGSDGSFLLARRPEGKPYAGYWEFPGGKVNPEESLLRALKRELLEELGIHVKHAYPWITRTFTYPHARVRLHFYRVVEWHGEPHPHEDQELSWQFADNVSVEPLLPANAPVLRALALPPVYGITNAAEWGPQIAAARIGHALQKGLRLVQLREKGMRSKALDAFAREVTALAHHYGARILVNSGTGNESLCQELDMDGIHFTSADLMNLSKRPDVEWCAASCHNAEELFRAEQLEMDFAVLAPVLPTLSHPDSPVLGWRKLARIIHGSAIPVYALGGLQSEDLAIAWEHGAHGIALMRRIEQVRGTGQKA”, for which the “soluble on expression in E. coli” value is “not soluble”.

As to “MGSDKIHHHHHHMRPIKNAKKIDYNLIKVFDTVITEGNATRAARKLDVTPAAISQALLRLQNLYGEELFIRTRKGLVPSSKGKSLHQVFRQAIESIESTLCDKTDAQESNELIVLGGDITENYYFPALLDTVLMNRYIIKHYAIKKTGEYSPASMLTHGYADVIMGILEIKNEMIESYLIDNLSDFVCVCGEKSPLVGLEKMSLYNFYAARHAVYHSDMFSSFTADSIDLFKSSTPYAGRREIGYYSDSLFGVIDIVEKSDMVAILPGKIATYFRDVRRYNIKILRMPDEMIFRTLPVYAYLATNSTHYKNVKKLISTFQSTFLFSQEKQPDALVEGSTSLCDLSV”, the “soluble on expression in E. coli” value is recorded as “not soluble”.

As for “MGSDKIHHHHHHMRPRILLYTGKGGVGKTSIAAATGALLSSKGHKTLIISTDPAHSLGDAFGMEIGHSIKQLADNLYGQEVSVVQSINEHWGELKDYLRSLFLSQGLDPVSADEIATLPGFEEASELLYLRNYYYDEEYDTIIMDSAPTGAALQLLSFPEVMTWYMDKLFPISRKTARVARPLLKPFVDIPLPEDAVFENIDLLYRQLTDIRKILTNNDVTSIRLVTNPDNMSYSETKRAYTYLLLYGYPVDAVIINKILSDETGDFFEKMRGSQKDIITEMENSFVDIKIFKARLLQEEPIGIKKLIELGKLIYGDEDPYKVFYKGTPIKYTKNGDRYILKIKMPFAEKEKLNLFNHGGELTIEIANWKRVFYLPESISDKRPVSAEYSNGYLNVILE”, the “soluble on expression in E. coli” value is reported as “not soluble”.

For the sequence “MGSDKIHHHHHHMRQFAKPTIVVSKCLEFDACRYNGEMIPDVTIRNLQPFVTFIPVCPEVEIGLGTPRETIRIVEEKGVNKLMQPSTREDLTGKMEQFSNKFLQTISDVDGFILKNRSPSCGTRDVKIYSGFEKAPAKGKGPGLFGGAVIKNFSHLPIEEEGRLSNFIIREHFLTRLFTIAYYKMMKRNKNMKDLVSFQSDNKYLFMAYNQVKQKELGRIIANHKNEKIEVVFENYEKTLYELFMRTPRYTSNVNVCEHIFGYFKTKLKKQEKDHFLDLIQKYKEKKIPLSSLLAILKSWALRFDEKYLLRQTYFEPYPEALVEISDSGKGRDY”, the “soluble on expression in E. coli” value was “not soluble”.

With “MGSDKIHHHHHHMRRIRTLLSKKPSKLVFNLRKYAAFRQAWKSINVNRTSYSKTRRHYDAVVIGSDEVWNIQNPTFAMMPEYFGRGLNAKNIITYAPSSSKTTYADVAQNPLLAEGMRNIHHFSARDRNTFEIVEKIVNKPVTMVLDPTFLVEYDEEVEEAGVNSHGYVLVYTYQFDRLKIEKTRRFARSRGLRLISPCFYNDWCDEVVPCTPFGFLGLIRDAEYVVTDTFHGSIFSILYGKHFGSYASEKIKVAALLSALGLADRELGGVDDIGSVLDARIDYGRVRTCIEQERDVSLNYLRQALAPAG”, the “soluble on expression in E. coli” value is “not soluble”.

Consider “MGSDKIHHHHHHMRSPVPRVAAIHDLSGFGRTSLTVAIPVLSAMGIQVCPMPTAMLSTHTSGFKGFSFIDLTAEMRRFFDHWKSLNIRFDAIYSGFLGSPDQVAIVAQCIDMFRTPDGFAVVDPVLGDNGELEPTMDMEMVHRMRWLVSKADIITPNFTEAALLLDEPYREHIDQPTLKDWLRRLTAMGPHVAVVTSVPVEGSRTTTSVVAYNRPHDRFWKVDCQYIPAHYPGTGDTFASVLTGSILQGDSLPIAIERAVQFVTMGIRATFGHNSPSREGILLERVLDTLRAPVTMSSYELLEE”, for which the “soluble on expression in E. coli” value was “not soluble”.

On to “MGSDKIHHHHHHMRSTDRLLFIDFLLKFENKNGTVIPCCVDNFDCTFTHKGGKSMYEKERKELYNAHLLLEKYGLVAYTSGNVSVRIGDHVLIKPSGVPYTELKPEDFVVVDLEGNVIEGEKKPSVDTATHLYLYKHLDWAKSVIHTHSTFAMVWAILEKSIPVLCTAHADVFGEEIPLTEYAPVGSEAIGKAVVKVIGKSGAVLLRKHGVMIVGTSVDDAVKKAIFLEEVAKAAYFATLAGKPTPLPPDEVDHLYNQYHTKYGQK”, for which the “soluble on expression in E. coli” value is given as “not soluble”.

Take “MGSDKIHHHHHHMRVNSQSNHDVSPAPSGVVLEAADPAELLVRAQKTLGLLSPLLSPLAQAFHDRGHRLYLVGGSVRDALLDELGHDLDCTTDARPEVVSAILEEYAPVVWDTGIEFGTVSAEKDGQQIEITTFRSDVYDGQSRNPEVQFGDTLEGDLIRRDFTVNAMAMEILPDGSMQFHDPVGGMNDLVAGLLDTPATPQQSFNDDPLRMLRAARFVSQLGFDLAPRVRHAMTEMADQITRITAERVQVELDKMICGKVPWDGIDVMVDTGLADIIYPEISALRLTQDEHHQHKDVYAHSLTVLRQAMDQEEDGPDVVLRWAALMHDCGKPDTREFSPEGRVSFHQHEIVGARLMRHRMRALKYSKHTIRDVSELIRLHMRFHGFSEGEWTDSAVRRYVTDAGDLLPRLHKLVRADCTTRNKKKAERLQKTYDHLEDRIADIAAKEDLAKVRPDLDGNEIMEILDIKAGPQVGQAWKFLKELRLERGPLEREDAILELKKWWYEQ”: the “soluble on expression in E. coli” value is reported as “not soluble”.

Consider “MGSDKIHHHHHHMRYLSKDILEEVITQRPSDSYKSNFGRVVLIGGNRQYGGAIIMSTEACINSGAGLTTVITDVKNHGPLHARCPEAMVVGFEETVLLTNVVEQADVILIGPGLGLDATAQQILKMVLAQHQKQQWLIIDGSAITLFSQGNFSLTYPEKVVFTPHQMEWQRLSHLPIEQQTLANNQRQQAKLGSTIVLKSHRTTIFHAGEPFQNTGGNPGMATGGTGDTLAGIIAGFLAQFKPTIETIAGAVYLHSLIGDDLAKTDYVVLPTKISQALPTYMKKYAQPHTAPDSELLEQKRSR”, for which the “soluble on expression in E. coli” value is “not soluble”.

As to “MGSDKIHHHHHHMSCKAFQGQTLREHIEAMLAAWEIVKNKYIPSIIRVMKTVGVKFTEEDADKFMKTLIILHDVGKCSEVYQKHLSNNEPLRGFRHELVSAYYAYNILKDMFKDETIAFIGALVVMMHHEPILMGQIRSLDKEELTPEVVLDKLRTFNGVMEGTESFIKSMIKEKLGVIPKVPSPTQEDVLREVIRLSVLARHRPDSGKLRMVVGALLIPLVLCDYKGAKEREGESPKFAEVLRVEMMK”, the “soluble on expression in E. coli” value is “not soluble”.

As to “MGSDKIHHHHHHMSDEGRHKPTSAPNRVFMMKGMDKLRYQQDFLNIRPIFTAGEQEYLTGLSDRLPLSVLTGSVRNIEEIGIDFVYSSAKLEGNTYNQYDTQALLKLGQTAGGKLYSDAVMLINLRESYRHLLSGLDSPEPFDWLDFLKTTHSLISENLLEKGSGGVVRRDSVTISGTDYTPLSNPQSLDTELKWLLQEAPKIENPFDRAVYLHNNLAYLQYFKDCNKRTARNCMTLSLMRSGFFPCVFSPDSYPAYAEAVVAYYETGDYGLFKKYFISAYENTVNKYGPQPDMDIFRNFSL”, the “soluble on expression in E. coli” value was “not soluble”.

Take “MGSDKIHHHHHHMSDNLPKKQPRTAPPEARREQLIDATITAISTYGLSGTTLAKVTAEAGLSLGLVNFHFKSKEALLTATLTHLADEHRALWFTRSSQPDVSAADKLKLIVDAQFHAKICNRRKLSVWFAFFGESRPRKAYRELTGPLDEERQIATSRLCADIIAEGGYSGIDSDTVSAMLESLFDGFWLNILMYPDRFTRQSAKAQVLSYLRLCFPQHFTCLDAETFA”: the “soluble on expression in E. coli” value is on record as “not soluble”.

For the sequence “MGSDKIHHHHHHMSDQRYNLRGVSASKEDVHNAIKNIDKGIFPKAFCKIIPDILGGDPEYCNIMHADGAGTKSSLAYMYWKETGDLSVWKGIAQDALIMNIDDLLCVGAVDNILVSSTIGRNKLLVPGEVISAIINGTDELLAELREMGVGCYATGGETADVGDLVRTIIVDSTVTCRMKRSDVIDNKNIQGGDVIVGLASSGQATYEKEYNGGMGSNGLTSARHDVFSKYLAKKYPESYDAAVPKELVYSGGLKLTDKIEELGIDAGKMVLSPTRTYAPVIKVLLDKLRSQIHGMVHCSGGAQTKVMHFVENKRVTKDNLFPIPPLFRTIQEQSGTDWSEMYKVFNMGHRMEIYIAPEHAEEVIGISKSFGIDAQIVGFVEEADKNELIIESEKGRFTY”, the “soluble on expression in E. coli” value was “not soluble”.

Source of the values: the DeepSol protein solubility set.
